Positions count from the first letter of the chain named.
T1: human GLUT4 (hsGLUT4), wild type (UniProt P14672 1-509)
T1 chain: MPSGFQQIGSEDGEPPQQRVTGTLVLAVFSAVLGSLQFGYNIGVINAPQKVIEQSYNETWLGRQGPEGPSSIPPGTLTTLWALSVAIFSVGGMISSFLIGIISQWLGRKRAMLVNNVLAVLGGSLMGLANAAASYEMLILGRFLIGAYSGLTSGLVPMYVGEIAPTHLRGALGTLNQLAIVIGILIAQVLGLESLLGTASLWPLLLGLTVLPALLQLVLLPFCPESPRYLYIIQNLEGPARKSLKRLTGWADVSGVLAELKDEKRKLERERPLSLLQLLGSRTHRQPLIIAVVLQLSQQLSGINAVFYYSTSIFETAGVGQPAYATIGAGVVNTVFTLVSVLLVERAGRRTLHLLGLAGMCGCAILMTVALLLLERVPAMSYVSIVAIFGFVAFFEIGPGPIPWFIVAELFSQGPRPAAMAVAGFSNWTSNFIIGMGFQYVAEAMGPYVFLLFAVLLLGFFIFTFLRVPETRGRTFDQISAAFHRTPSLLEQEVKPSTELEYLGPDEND

T2: mouse GLUT4 (mmGLUT4) (mouse, UniProt P14142 1-509)
T2 construct: whole, on cells; Also tested as endogenous protein in murine 3T3-L1 adipocytes; also called endogenous GLUT4 of 3T3-L1 adipocytes
T2 sequence (looked up): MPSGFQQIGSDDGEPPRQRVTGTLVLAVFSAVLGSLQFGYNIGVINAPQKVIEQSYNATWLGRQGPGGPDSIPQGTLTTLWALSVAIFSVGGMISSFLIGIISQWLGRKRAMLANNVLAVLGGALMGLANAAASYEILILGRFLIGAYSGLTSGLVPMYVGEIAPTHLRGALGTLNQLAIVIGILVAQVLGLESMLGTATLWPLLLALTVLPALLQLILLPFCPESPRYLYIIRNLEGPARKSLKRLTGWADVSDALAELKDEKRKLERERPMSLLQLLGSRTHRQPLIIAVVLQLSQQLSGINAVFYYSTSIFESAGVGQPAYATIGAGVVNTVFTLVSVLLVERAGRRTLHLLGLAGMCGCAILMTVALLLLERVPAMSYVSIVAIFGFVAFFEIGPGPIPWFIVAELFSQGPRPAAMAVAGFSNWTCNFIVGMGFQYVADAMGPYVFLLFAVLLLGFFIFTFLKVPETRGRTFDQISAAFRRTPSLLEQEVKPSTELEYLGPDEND

T3: hsGLUT4 Y159A (human, UniProt P14672 1-509)
T3 sequence: T1 chain with Y159A

B1: AB108 (Fc fusion)
scFv: ALTQPSSVSANLGGTVKITCSGSSGSYGWYQQKAPGSAPVTLIYRNDKRPSDIPSRFSGSESGSTGTLTITGVQAEDEAVYFCGGYDSSAGYAAFGAGTTLTVLGQSSRSSGGGGSSGGGGSAVTLDESGGGLQTPGGALSLVCKASGFTFSSHGMGWVRQAPGKGLEWVGSISTGRYTFYAPAVKGRATISRDNGQSTLRLQLNNLRAEDTGTYYCTKCAGLNGCGGGEIDAWGHGTEVIVSS
notes: Bivalent scFv-Fc; also called MAb AB108; not shown: Fc fragment of human IgG1, cloned in frame with the scFv
B2: AB105 (Fc fusion)
scFv: ALTQPSSVSANPGETVEITCSGDSSYYGWYQQKSPGSAPVTVIYANTNRPSDIPSRFSGSASGSTATLTITGVQAEDEAVYYCGSADSTYAGIFGAGTTLTVLGQSSRSSGGGGSSGGGGSAVTLDESGGGLQTPGGALSLICKASGFTFSSYTMNWVRQAPGKGLEWVGVISNSGRTTNYGAAVQGRATISRDNGQSTVRLQLNNLRAEDTGTYYCAKSSASASCAWWAGRSYPCSANRIDAWGHGTEVIVSS
notes: Bivalent scFv-Fc; also called MAb AB105; not shown: Fc fragment of human IgG1, cloned in frame with the scFv
B3: AB111 (Fc fusion)
scFv: ALTQPSSVSANPGETVKITCSGSGSWYGWFQQKSPGSAPVTVIYSNDKRPSDIPSRFSGSKSGSTSTLTITGVQVEDEAVYYCGNWDIFGAGTTLTVLGQSSRSSGGGGSSGGGGSAVTLDESGGGLQTPGGALSLVCKASGFTFSSHGMGWVRQAPGKGLEWVASISTGRYTFYAPAVKGRATISRDNGQSTVRLQLNNLRAEDTATYYCTKCAGLNGCGGGEIDAWGHGTEVIVSS
notes: Bivalent scFv-Fc; also called MAb AB111; not shown: Fc fragment of human IgG1, cloned in frame with the scFv
B4: AB102 (Fc fusion)
scFv: ALTQPSSVSANLGGTVKITCSGGGSYGYGWYQQKSPGSAPVTVIYSNDQRPSDIPSRFSGSKSGSTATLTITGVRAEDEAIYYCGSTDSDYVGIFGAGTTLTVLGQSSRSSGGGGSSGGGGSAVTLDESGGGLQTPGGTLSLVCKASGFDFSSYATIWVRQAPGKGLEWVAGISGTGTGSSTGYAPAVKGRATISRDNGQSTVRLQLNNLRAEDTGSYFCAKSTGYGDSWIYPDSIDAWGHGTEVIVSS
notes: also called MAb AB102; not shown: Fc fragment of human IgG1, cloned in frame with the scFv

Key:
[1] = target: T1, human GLUT4 (hsGLUT4), wild type; assay: BLI; avid
mouse GLUT4 (mmGLUT4) [2] = target: T2, mouse GLUT4 (mmGLUT4); assay: immunofluorescence, surface of 3T3-L1 adipocytes (data not shown)
Procedure: (§1) Adipocytes, between 7-8 days post-differentiation, were serum-starved for 3 hours in Dulbecco's modified Eagle's medium with […] bicarbonate and 20 mM HEPES pH 7.4, prior to stimulation for 20 minutes at 37° C. with or without 170 nM human insulin (Sigma Aldrich) prepared in the same media with 2% BSA. Adipocytes were washed twice with ice-cold PBS with calcium and magnesium (PBS+/+) and remained on ice for all subsequent steps.
(§2) Adipocytes were blocked with 10% Normal Goat Serum (NGS) in PBS+/+ for 30 minutes on ice before adding test antibodies at 10 ug/ml in 10% NGS. Primary antibodies were incubated for 2 hours, then washed 2× with PBS+/+. Cells were subsequently fixed for 5 minutes in 4% paraformaldehyde (PFA), washed 2× with PBS+/+, and then stained with secondary antibody (AF488 conjugated Goat anti-human, Jackson Immunoresearch) diluted 1:200 in 10% NGS. Secondary antibody was incubated for 1 hour, after washing 3× with PBS+/+. For intracellular staining, cells were fixed prior to the blocking step and permeabilized with 10% NGS containing 0.2% Saponin. The 1F8 antibody was used at 1 μg/ml, and detected using AF647-conjugated goat anti-mouse secondary antibody diluted 1:400 (Jackson Immunoresearch). Alexafluor 488 was visualized using the B-2EC cube with an exposure time of 1.5 seconds. Alexafluor 647 was visualized using the Cy5 cube with an exposure time of 2 seconds.

mouse GLUT4 (mmGLUT4) [3] = target: T2, mouse GLUT4 (mmGLUT4); assay: immunofluorescence, permeabilized 3T3-L1 adipocytes (data not shown)
Procedure: as §1, §2

hsGLUT4 Y159A = target: T3, hsGLUT4 Y159A; assay: flow cytometry, alanine-scan library in HEK-293T, with cytochalasin B

Binder | Kd [1] | binding result (mouse GLUT4 (mmGLUT4) [2]) | binding result (mouse GLUT4 (mmGLUT4) [3]) | % of binding to wild type GLUT4 (hsGLUT4 Y159A)
B1 | 1.8 nM | – | – | –
B2 | – | binds | – | –
B3 | 0.56 nM | – | binds | –
B4 | – | – | binds | 11%

From patent publication US20210238276A1 (INTEGRAL MOLECULAR, published 2021)
